According to patent US20160271292A1 (GEORGIA TECH RESEARCH, published 2016):

How the values were obtained:
[1] = biological target: fibrin (polymerized from purified human fibrinogen with thrombin) (human) (UniProt P02671); assay: SPR, sdFv flowed over thin fibrin layer, Langmuir 1:1 fit
[2] = biological target: T1, BSA (UniProt P02769 25-607); assay: SPR, scFv/sdFv flowed over a BSA surface
T1 construct: Control surface in SPR; also called BSA surface
T1 sequence (P02769 25-607 limits assumed): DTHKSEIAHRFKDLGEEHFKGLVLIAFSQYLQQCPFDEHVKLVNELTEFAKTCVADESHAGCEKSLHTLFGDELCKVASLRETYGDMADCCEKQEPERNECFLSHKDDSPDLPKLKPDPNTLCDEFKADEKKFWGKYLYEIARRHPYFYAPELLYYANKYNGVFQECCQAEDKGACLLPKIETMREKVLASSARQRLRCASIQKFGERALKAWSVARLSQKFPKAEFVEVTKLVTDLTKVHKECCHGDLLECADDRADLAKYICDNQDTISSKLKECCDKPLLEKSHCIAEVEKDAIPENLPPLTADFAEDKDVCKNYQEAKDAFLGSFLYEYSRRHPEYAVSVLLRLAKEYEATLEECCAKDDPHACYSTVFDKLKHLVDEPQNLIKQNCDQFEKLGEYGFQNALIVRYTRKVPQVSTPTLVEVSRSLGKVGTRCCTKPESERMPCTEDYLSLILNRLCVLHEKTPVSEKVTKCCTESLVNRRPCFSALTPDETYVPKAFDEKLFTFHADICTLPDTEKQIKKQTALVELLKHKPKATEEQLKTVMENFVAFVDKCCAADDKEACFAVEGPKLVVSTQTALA

B1: H6 fibrin-specific single domain variable fragment antibody (sdFv) (VHH)
VHH: QVQLLESGGGLVQPGGSLRLSCAASGDRFTHNDMGWVRQAPGKGLEWVSTIPTTDGSTYYADSVKGRFTISRDNSKSTLYLQMNSLRAEDTAVYYCATGYMWKAPAYVKYWGQGTLVTVSS
notes: Human-derived single domain antibody with only the VH of human IgG, from a phagemid library; Produced as soluble sdFv in E. coli HB2151 and purified on protein A; also called clone H6; nanobody
- Kd [1]: 199 nM
- binding result [2]: no binding (tested: not printed)
